Experimental data: patent publication US20230167185A1

B1: 14GIIICII scFv (scFv)
scFv: QVQLQQPGAELVMPGASVNLSCKASGYTFTDYWMHWVKQRPGQGLEWIGEIDPSDNFSNLNQNFRGKATLTVDKSSRTAFLQLSSLTSEDSAVYYCAVEDYWGQGTTLTVSSGGGGSGGGGSGGGGSGGGGSDIVMTQATPSVLVTPGEAVSISCRASRSLLHSNGITYLYWFLQRPGQSPQVLIYRMSNLVSGVPDRFSGSGSGTAFTLRISRVEAEDVGVYYCMQHLEFPYTFGGGTKLEIK
B2: IBIIICI scFv (scFv)
scFv: EVRLLQSGAALVRPGASVKLSCTASGFNIKDFNIHWVKQRPEQGLEWIGRIDPENGDAEYVPKFQVRATMTTDTSSNTVYLHLSSLTSGDTAVYYCTTGSYDLDVEYWGQGTTLTVSSGGGGSGGGGSGGGGSGGGGSELQMTQSPSSLSASLGDTVTITCHASQNINVWLSWYQQRPGNIPKLLIYKASTLHTGVPSRFRGSGSGTGFTLTISSLQPEDIATYYCQQGQSYPLTFGAGTKLELK

How the values were obtained:
[1] = target: UU72 (Clostridium tetani (tetanus toxin))
[2] = target: UU24 (Clostridium tetani (tetanus toxin))
[3] = target: UU73 (Clostridium tetani (tetanus toxin))
[4] = target: UU74 (Clostridium tetani (tetanus toxin))
[5] = target: UU71 (Clostridium tetani (tetanus toxin))
[6] = target: UU70 (Clostridium tetani (tetanus toxin))

Binder	Kd [1]	koff [1]	kon [1]	Kd [2]	koff [2]	kon [2]	Kd [3]	koff [3]	kon [3]	Kd [4]	koff [4]	kon [4]	Kd [5]	koff [5]	kon [5]	Kd [6]	koff [6]	kon [6]
B1	0.6 nM	0.00034 s⁻¹	570000 M⁻¹ s⁻¹	0.3 nM	0.0002 s⁻¹	660000 M⁻¹ s⁻¹	0.87 nM	0.00044 s⁻¹	510000 M⁻¹ s⁻¹	1.7 nM	0.00095 s⁻¹	570000 M⁻¹ s⁻¹	0.6 nM	0.00032 s⁻¹	540000 M⁻¹ s⁻¹	0.29 nM	0.00019 s⁻¹	650000 M⁻¹ s⁻¹
B2		< 1e-05 s⁻¹	250000 M⁻¹ s⁻¹	0.12 nM	2.3e-05 s⁻¹	190000 M⁻¹ s⁻¹	0.34 nM	6.7e-05 s⁻¹	200000 M⁻¹ s⁻¹	0.12 nM	3.3e-05 s⁻¹	280000 M⁻¹ s⁻¹		< 1e-05 s⁻¹	230000 M⁻¹ s⁻¹	0.16 nM	3.7e-05 s⁻¹	230000 M⁻¹ s⁻¹
